# According to patent publication US20210340530A1 (INTELLIA THERAPEUTICS, published 2021):
# Key:
# [1] = biological target: T1, … (VLD) WT1 peptide pulsed on target cells (HLA-02.01 positive T2 cell line; OCI-AML3); experiment: cell-based or functional assay
# [2] = biological target: T2, … (RMF) WT1 peptide pulsed on target cells (HLA-02.01 positive T2 cell line; OCI-AML3); experiment: cell-based or functional assay
# [3] = biological target: T1, … (VLD) WT1 peptide pulsed on target …; experiment: cell-based or functional assay; remark: listed apart in the source
# [4] = biological target: T1, … (VLD) WT1 peptide pulsed on target …; experiment: cell-based or functional assay; remark: listed apart in the source
# [5] = biological target: T1, … (VLD) WT1 peptide pulsed on target …; experiment: cell-based or functional assay; remark: listed apart in the source
# [6] = biological target: T2, … (RMF) WT1 peptide pulsed on target …; experiment: cell-based or functional assay; remark: listed apart in the source
# [7] = biological target: T1, … (VLD) WT1 peptide pulsed on target …; experiment: cell-based or functional assay; remark: listed apart in the source
# [8] = biological target: T2, … (RMF) WT1 peptide pulsed on target …; experiment: cell-based or functional assay; remark: listed apart in the source
# [9] = biological target: T3, VLD-Tetramer (pMHC tetramer with WT1 peptide …); experiment: flow cytometry, VLD-Tetramer staining of engineered T cells; TRAC RNP only
# T3 construct: Staining reagent; also called VLD (Wilms' tumor antigen) tetramer; TCR specific pMHC tetramer
# Description: (§1) Four to 12 days after RNP nucleofection, edited T cells (200 ul/200,000 cells) were collected in a 96 well round bottom plate and spun down at 500 g for 5 minutes. Cells were then resuspended in an antibody mixture containing a combination of antibodies targeting CD3, CD4, CD8, CD45RO, CD45RA, CD27, CCR7, CD62L, and/or the TCR specific pMHC tetramer or TCR specific Vbeta chain antibody. The mixture was incubated for 45 minutes at room temperature in the dark. Samples were spun down at 500 g for 5 minutes, cell pellets collected, and resuspended in 1:10,000 DAPI (Biolegend—#422801) in FACS buffer. Flow cytometry was then performed using the cytoflex according to the manufacturer's instructions.
# (§2) T cells were evaluated with additional engineered TCRs for the impact of endogenous beta chains on pairing of both the inserted alpha chain and inserted beta chain. The experiment was performed as described herein except tetramer staining was used to measure MFI and the AAV inserts in Table 31 were used for transduction.
# [10] = biological target: T3, VLD-Tetramer (pMHC tetramer with WT1 …); experiment: flow cytometry, VLD-Tetramer staining of engineered T cells; TRAC + TRBC RNP
# Description: as §1, §2
binder,measurement,setting,value
"TCR-G (WT1-specific T-cell receptor) (TCR, V domains shown, also called AV15-TCR-G) V domain 1: DQQVKQNSPSLSVQEGRISILNCDYTNSMFDYFLWYKKYPAEGPTFLISISSIKDKNEDGRFTVFLNKSAKHLSLHIVPSQPGDSAVYFCAARGQGNLIFGKGTKLSVKP V domain 2: EAGVAQSPRYKIIEKRQSVAFWCNPISGHATLYWYQQILGQGPKLLIQFQNNGVVDDSQLPKDRFSAERLKGVDSTLKIQPAKLEDSAVYLCASSLYRGEQYFGPGTRLTVTE",Caspase 3/7 integrated intensity; TRAC only; 0 nM VLD; T2,[1],12200
same,Caspase 3/7 integrated intensity; TRAC only; 0.005 nM VLD; T2,[1],21000
same,Caspase 3/7 integrated intensity; TRAC only; 0.05 nM VLD; T2,[1],199000
same,Caspase 3/7 integrated intensity; TRAC only; 0.5 nM VLD; T2,[1],1.01e+06
same,Caspase 3/7 integrated intensity; TRAC only; 5 nM VLD; T2,[1],1.14e+06
same,Caspase 3/7 integrated intensity; TRAC only; 50 nM VLD; T2,[1],1.28e+06
same,Caspase 3/7 integrated intensity; TRAC only; 500 nM VLD; T2,[1],1.31e+06
same,Caspase 3/7 integrated intensity; TRAC/TRBC; 0 nM VLD; T2,[1],12400
same,Caspase 3/7 integrated intensity; TRAC/TRBC; 0.005 nM VLD; T2,[1],21000
same,Caspase 3/7 integrated intensity; TRAC/TRBC; 0.05 nM VLD; T2,[1],311000
same,Caspase 3/7 integrated intensity; TRAC/TRBC; 0.5 nM VLD; T2,[1],964000
same,Caspase 3/7 integrated intensity; TRAC/TRBC; 5 nM VLD; T2,[1],1.26e+06
same,Caspase 3/7 integrated intensity; TRAC/TRBC; 50 nM VLD; T2,[1],1.04e+06
same,Caspase 3/7 integrated intensity; TRAC/TRBC; 500 nM VLD; T2,[1],1.19e+06
same,Caspase 3/7 integrated intensity; TRAC only; 500 nM RMF; T2,[2],4950
same,Caspase 3/7 integrated intensity; TRAC/TRBC; 500 nM RMF; T2,[2],6800
same,IL2 release; TRAC only; 0 nM VLD; T2,[3],338 pg/mL
same,IL2 release; TRAC only; 0.005 nM VLD; T2,[3],326 pg/mL
same,IL2 release; TRAC only; 0.05 nM VLD; T2,[3],284 pg/mL
same,IL2 release; TRAC only; 0.5 nM VLD; T2,[3],305 pg/mL
same,IL2 release; TRAC only; 5 nM VLD; T2,[3],442 pg/mL
same,IL2 release; TRAC only; 50 nM VLD; T2,[3],1050 pg/mL
same,IL2 release; TRAC only; 500 nM VLD; T2,[3],1570 pg/mL
same,IL2 release; TRAC/TRBC; 0 nM VLD; T2,[3],306 pg/mL
same,IL2 release; TRAC/TRBC; 0.005 nM VLD; T2,[3],196 pg/mL
same,IL2 release; TRAC/TRBC; 0.05 nM VLD; T2,[3],198 pg/mL
same,IL2 release; TRAC/TRBC; 0.5 nM VLD; T2,[3],248 pg/mL
same,IL2 release; TRAC/TRBC; 5 nM VLD; T2,[3],351 pg/mL
same,IL2 release; TRAC/TRBC; 50 nM VLD; T2,[3],764 pg/mL
same,IL2 release; TRAC/TRBC; 500 nM VLD; T2,[3],1200 pg/mL
same,IFN-gamma release; TRAC/TRBC; 50 nM VLD; T2,[4],23600
same,IFN-gamma release; TRAC/TRBC; 500 nM VLD; T2,[4],31600
same,IFN-gamma release; only TRAC; 50 nM VLD; T2,[4],23700
same,IFN-gamma release; only TRAC; 500 nM VLD; T2,[4],27500
same,% CD4+ TNFa+ IFNg+; TRAC/TRBC; 0 nM VLD; T2,[5],2.1%
same,% CD4+ TNFa+ IFNg+; TRAC/TRBC; 0.005 nM VLD; T2,[5],1.6%
same,% CD4+ TNFa+ IFNg+; TRAC/TRBC; 0.05 nM VLD; T2,[5],0.9%
same,% CD4+ TNFa+ IFNg+; TRAC/TRBC; 0.5 nM VLD; T2,[5],0.6%
same,% CD4+ TNFa+ IFNg+; TRAC/TRBC; 5 nM VLD; T2,[5],0.2%
same,% CD4+ TNFa+ IFNg+; TRAC/TRBC; 50 nM VLD; T2,[5],0.1%
same,% CD8+ TNFa+ IFNg+; TRAC/TRBC; 0 nM VLD; T2,[5],0.4%
same,% CD8+ TNFa+ IFNg+; TRAC/TRBC; 0.005 nM VLD; T2,[5],7.6%
same,% CD8+ TNFa+ IFNg+; TRAC/TRBC; 0.05 nM VLD; T2,[5],28.7%
same,% CD8+ TNFa+ IFNg+; TRAC/TRBC; 0.5 nM VLD; T2,[5],46.5%
same,% CD8+ TNFa+ IFNg+; TRAC/TRBC; 5 nM VLD; T2,[5],63.1%
same,% CD8+ TNFa+ IFNg+; TRAC/TRBC; 50 nM VLD; T2,[5],71.4%
same,% CD4+ TNFa+ IFNg+; TRAC/TRBC; 50 nM RMF; T2,[6],2.2%
same,% CD8+ TNFa+ IFNg+; TRAC/TRBC; 50 nM RMF; T2,[6],0.4%
same,% CD4+ CD107a+; TRAC/TRBC; 0 nM VLD; T2,[7],4.62%
same,% CD4+ CD107a+; TRAC/TRBC; 0.005 nM VLD; T2,[7],5.06%
same,% CD4+ CD107a+; TRAC/TRBC; 0.05 nM VLD; T2,[7],4.23%
same,% CD4+ CD107a+; TRAC/TRBC; 0.5 nM VLD; T2,[7],4.74%
same,% CD4+ CD107a+; TRAC/TRBC; 5 nM VLD; T2,[7],4.44%
same,% CD4+ CD107a+; TRAC/TRBC; 50 nM VLD; T2,[7],4.52%
same,% CD8+ CD107a+; TRAC/TRBC; 0 nM VLD; T2,[7],3.15%
same,% CD8+ CD107a+; TRAC/TRBC; 0.005 nM VLD; T2,[7],12.2%
same,% CD8+ CD107a+; TRAC/TRBC; 0.05 nM VLD; T2,[7],34.2%
same,% CD8+ CD107a+; TRAC/TRBC; 0.5 nM VLD; T2,[7],53.3%
same,% CD8+ CD107a+; TRAC/TRBC; 5 nM VLD; T2,[7],65.8%
same,% CD8+ CD107a+; TRAC/TRBC; 50 nM VLD; T2,[7],73.2%
same,% CD4+ CD107a+; TRAC/TRBC; 50 nM RMF; T2,[8],4.67%
same,% CD8+ CD107a+; TRAC/TRBC; 50 nM RMF; T2,[8],2.82%
same,Mean % Tetramer+ (CD4+),[9],77.5%
same,Mean % Tetramer+ (CD8+),[9],73.6%
same,Mean Tetramer MFI (CD4+),[9],101000 MFI
same,Mean Tetramer MFI (CD8+),[9],102000 MFI
same,Mean % Tetramer+ (CD4+),[10],85.3%
same,Mean % Tetramer+ (CD8+),[10],81.9%
same,Mean Tetramer MFI (CD4+),[10],251000 MFI
same,Mean Tetramer MFI (CD8+),[10],190000 MFI
"TCR-F (WT1-specific T-cell receptor) (TCR, V domains shown, also called AV14-TCR-F) V domain 1: AQKITQTQPGMFVQEKEAVTLDCTYDTSDPSYGLFWYKQPSSGEMIFLIYQGSYDQQNATEGRYSLNFQKARKSANLVISASQLGDSAMYFCAISGNTPLVFGKGTRLSVIA V domain 2: AAGVIQSPRHLIKEKRETATLKCYPIPRHDTVYWYQQGPGQDPQFLISFYEKMQSDKGSIPDRFSAQQFSDYHSELNMSSLELGDSALYFCASSLRGGLEKLFFGSGTQLSVLE",Mean % Tetramer+ (CD4+),[9],78.9%
same,Mean % Tetramer+ (CD8+),[9],61%
same,Mean Tetramer MFI (CD4+),[9],67300 MFI
same,Mean Tetramer MFI (CD8+),[9],50100 MFI
same,Mean % Tetramer+ (CD4+),[10],81.8%
same,Mean % Tetramer+ (CD8+),[10],76.6%
same,Mean Tetramer MFI (CD4+),[10],231000 MFI
same,Mean Tetramer MFI (CD8+),[10],172000 MFI
